Consider eleven molecules from PMC9692563, “The HIV-1 Integrase C-Terminal Domain Induces TAR RNA Structural Changes Promoting Tat Binding”.

Series [1] relates to Tat (HIV-1 primary isolate 133). Kind of series: BLI. The settings on record: EMSA: 20 mM MES pH 6.0, 150 mM NaCl, 2 mM DTT, 2 mM MgCl2, BSA, 8% PEG8000, 37 C 30 min (IN-FLm 2 h at 4 C); BLI: 50 mM HEPES pH 7.5, 200 mM NaCl, 2 mM BME, 5% …. For orientation: A gel shift assay detects complexes by their altered migration in electrophoresis.
The target in series [2] is T1, IN-CTD (HIV-1, UniProt P12497 1367-1435). Kind of series: EMSA; EMSA: 20 mM MES pH 6.0, 150 mM NaCl, 2 mM DTT, 2 mM MgCl2, BSA, 8% PEG8000, 37 C 30 min (IN-FLm 2 h at 4 C); BLI: 50 mM HEPES pH 7.5, 200 mM NaCl, 2 mM BME, 5%. The settings on record: protein: recombinant, tags: N-terminal 6xHis, label: 5' 32P.
Series [3] concerns the target T2, IN-CTD-dCT (HIV-1, UniProt P12497 1367-1417). Kind of series: EMSA; not affected by stem shortening; EMSA: 20 mM MES pH 6.0, 150 mM NaCl, 2 mM DTT, 2 mM MgCl2, BSA, 8% PEG8000, 37 C 30 min (IN-FLm 2 h at 4 C); BLI: 50 mM HEPES pH 7.5, 200 mM NaCl, 2 mM BME, 5%. Particulars: protein: recombinant; tags: N-terminal 6xHis; label: 5' 32P; hairpin.
Series [4] addresses T2, IN-CTD-dCT. In words: EMSA; EMSA: 20 mM MES pH 6.0, 150 mM NaCl, 2 mM DTT, 2 mM MgCl2, BSA, 8% PEG8000, 37 C 30 min (IN-FLm 2 h at 4 C); BLI: 50 mM HEPES pH 7.5, 200 mM NaCl, 2 mM BME, 5%. Particulars: protein: recombinant; tags: N-terminal 6xHis; label: 5' 32P; hairpin with bulge and hexaloop.
Series [5] has as its target IN-FL (integrase, E. coli) (HIV-1 NL4-3 (pNL4-3), UniProt P12497 1148-1435). The series is described as above. The settings on record: protein: recombinant; tags: N-terminal 6xHis; label: 5' 32P; hairpin with bulge and hexaloop.
For series [6], the target named is T3, IN-FLm (HIV-1 integrase, mammalian expressed) (HIV-1, UniProt P12497 1148-1435). The series is described as above. The settings on record: protein: recombinant, tags: N-terminal Flag, label: 5' 32P.
Series [7] concerns the target T3, IN-FLm (HIV-1 integrase, mammalian …). In words: EMSA; similar to wild type; EMSA: 20 mM MES pH 6.0, 150 mM NaCl, 2 mM DTT, 2 mM MgCl2, BSA, 8% PEG8000, 37 C 30 min (IN-FLm 2 h at 4 C); BLI: 50 mM HEPES pH 7.5, 200 mM NaCl, 2 mM BME, 5%. Particulars: protein: recombinant; tags: N-terminal Flag; label: 5' 32P; hairpin.
Series [8] concerns the target T1, IN-CTD. In words: BLI; 200 mM NaCl, 37 C; EMSA: 20 mM MES pH 6.0, 150 mM NaCl, 2 mM DTT, 2 mM MgCl2, BSA, 8% PEG8000, 37 C 30 min (IN-FLm 2 h at 4 C); BLI: 50 mM HEPES pH 7.5, 200 mM NaCl, 2 mM BME, 5%. The settings on record: protein: recombinant; tags: N-terminal 6xHis; label: 3' biotin; hairpin. (In BLI a coated tip is dipped into the sample, and binding shifts an interference pattern.)

The target of series [9] is T2, IN-CTD-dCT. The series is described as above. The settings on record: protein: recombinant; tags: N-terminal 6xHis; label: 3' biotin; hairpin.
The mark [10] stands for this setting: hairpin with bulge and hexaloop.

With “GGGCCAGAUCUGAGCCUGGGAGCUCUCUGGCCC [Bt-TAR]”, the Kd in [1] is 1.49 µM.
In series [1], “CGUCCAUCUGGUCAUCUAGUGAUAUCAUCG [Bt-RNA(30)-mer]” had a Kd of 3.84 µM.

B1: SD/Psi (structured_RNA)
RNA: GGGCGACUGGUCAGUACGCCAAAAAUUUUGACUAGCGGAGGCUAGAAGGAG
For the molecule B1, the binding result in the series with IN-CTD [2] (hairpin) is “binds”.

B2: TAR-SS (structured_RNA)
RNA: GGGUCUCUCUGGUUAGACCAGAUCUGAGCUGGGACUCUCUGGCUAACUAGGGAACCC
As for B2, the binding result with IN-CTD-dCT [3] was “binds”.
Take GGGCUCGGCUUGCUGAAGCGCGCACGGCAAGAGGCGAG (structured_RNA) [DIS]: the binding result with IN-CTD [2] (hairpin) was “binds”.
The same measure, in the same setting: in the case of GGGCACUGCUUAAGCCUCAAUAAAGCUUGCCUUGAGUGCUUCAAGUAGUG (structured_RNA) [polyA] it was “binds”.

B3: TAR-VSS (structured_RNA)
RNA: GGGUCUCUCUGGUUAGACCAGAUCUGAGCGCUCUCUGGCUAACUAGGGAACCC
As for B3, the binding result with IN-CTD-dCT [3] is recorded as “binds”.

B4: TAR (structured_RNA)
RNA: GGGUCUCUCUGGUUAGACCAGAUCUGAGCCUGGGAGCUCUCUGGCUAACUAGGGAACCC
For B4, the binding result (with IN-CTD [2] (setting [10]); in the series with IN-CTD-dCT [4]; in series [5]; in [6] (setting [10])) was “binds” in each case.
For the molecule CGUCCAUCUGGUCAUCUAGUGAUAUCAUCG (ssRNA) [RNA(30)-mer], in [6] (weakly structured), the binding result was “binds”.

B5: TAR-LS (structured_RNA)
RNA: GGGUCUCUCUGGUUAGACCAGAUCUGAGCGCUGGGACGCUCUCUGGCUAACUAGGGAACCC
As to B5, the binding result in series [7] is recorded as “binds”.
Take GGGCCAGAUCUGAGCCUGGGAGCUCUCUGGCCC (structured_RNA) [Bt-TAR]: the Kd with IN-CTD [8] amounted to 0.32 µM; in the series with IN-CTD-dCT [9] it was 0.77 µM.

For orientation: Kd means the constant that tells how readily two partners part at equilibrium.
